To fix the notation:
B1: Heterokaryon incompatibility protein s, Q03689 (parent)
chain: MSEPFGIVAGALNVAGLFNNCVDCFEYVQLGRPFGRDYERCQLRLDIAKARLSRWGEAVKINDDPRFHSDAPTDKSVQLAKSIVEEILLLFESAQKTSKRYELVADQQDLVVFEDKDMKPIGRALHRRLNDLVSRRQKQTSLAKKTAWALYDGKSLEKIVDQVARFVDELEKAFPIEAVCHKLAEIEIEEVEDEASLTILKDAAGGIDAAMSDAAAQKIDAIVGRNSAKDIRTEERARVQLGNVVTAAALHGGIRISDQTTNSVETVVGKGESRVLIGNEYGGKGFWDN

Variants of B1 are the subject of this series. The conditions noted are these: Podospora anserina; pH 7.5; 25 °C; GdnHCl; optical density; structure 2KJ3; whole UniProt chain shown.

Take MSEPFGIVAGALNVAGLFNNCVDCFEYVQLGRPFGRDYERCQLRLDIAKARLSRWGEAVKINDDPRFHSDAPTDKSVQLAKSIVEEILLLFESAQKTSKRYELVADQQDLVVFEDKDMKPIGRALHRRLNDLVSRRQKQTSLAKKTAWALYDGKSLEKIVDQVARFVDELEKAFPIEAVCHKLAEIEIEEVEDEASLTILKDAAGGIDAAMSDAAAQKIDAIVGRNSAKDIRTEERARVQLGNVVTAAALHGGIRISDQTTNSVETVVGKGESRVLIANEYGGKGFWDN [G278A]: the “ddG of mutation (higher = less stable)” value came to 0.8 kcal/mol and the unfolding free energy was 2.5 kcal/mol.

MSEPFGIVAGALNVAGLFNNCVDCFEYVQLGRPFGRDYERCQLRLDIAKARLSRWGEAVKINDDPRFHSDAPTDKSVQLAKSIVEEILLLFESAQKTSKRYELVADQQDLVVFEDKDMKPIGRALHRRLNDLVSRRQKQTSLAKKTAWALYDGKSLEKIVDQVARFVDELEKAFPIEAVCHKLAEIEIEEVEDEASLTILKDAAGGIDAAMSDAAAQKIDAIVGRNSAKDIRTEERARVQLGNVVTAAALHGGIRISDQTTNSAETVVGKGESRVLIGNEYGGKGFWDN [V264A]: the “ddG of mutation (higher = less stable)” value is -1 kcal/mol and the unfolding free energy amounted to 4 kcal/mol.

On to MSEPFGIVAGALNVAGLFNNCVDCFEYVQLGRPFGRDYERCQLRLDIAKARLSRWGEAVKINDDPRFHSDAPTDKSVQLAKSIVEEILLLFESAQKTSKRYELVADQQDLVVFEDKDMKPIGRALHRRLNDLVSRRQKQTSLAKKTAWALYDGKSLEKIVDQVARFVDELEKAFPIEAVCHKLAEIEIEEVEDEASLTILKDAAGGIDAAMSDAAAQKIDAIVGRNSAKDIRTEERARVQAGNVVTAAALHGGIRISDQTTNSVETVVGKGESRVLIGNEYGGKGFWDN [L241A], for which the “ddG of mutation (higher = less stable)” value was -1 kcal/mol and the unfolding free energy is 3.9 kcal/mol.

On to MSEPFGIVAGALNVAGLFNNCVDCFEYVQLGRPFGRDYERCQLRLDIAKARLSRWGEAVKINDDPRFHSDAPTDKSVQLAKSIVEEILLLFESAQKTSKRYELVADQQDLVVFEDKDMKPIGRALHRRLNDLVSRRQKQTSLAKKTAWALYDGKSLEKIVDQVARFVDELEKAFPIEAVCHKLAEIEIEEVEDEASLTILKDAAGGIDAAMSDAAAQKIDAIVGRNSAKDIRTEERARAQLGNVVTAAALHGGIRISDQTTNSVETVVGKGESRVLIGNEYGGKGFWDN [V239A], for which the “ddG of mutation (higher = less stable)” value is -1 kcal/mol and the unfolding free energy was 3.9 kcal/mol.

Turning to MSEPFGIVAGALNVAGLFNNCVDCFEYVQLGRPFGRDYERCQLRLDIAKARLSRWGEAVKINDDPRFHSDAPTDKSVQLAKSIVEEILLLFESAQKTSKRYELVADQQDLVVFEDKDMKPIGRALHRRLNDLVSRRQKQTSLAKKTAWALYDGKSLEKIVDQVARFVDELEKAFPIEAVCHKLAEIEIEEVEDEASLTILKDAAGGIDAAMSDAAAQKIDAIVGRNSAKDIRTEERARVQLGNVVTAAALHGGIRISDQTTNSVETAVGKGESRVLIGNEYGGKGFWDN [V267A], the “ddG of mutation (higher = less stable)” value was -0.2 kcal/mol and the unfolding free energy was found to be 2.9 kcal/mol.

For MSEPFGIVAGALNVAGLFNNCVDCFEYVQLGRPFGRDYERCQLRLDIAKARLSRWGEAVKINDDPRFHSDAPTDKSVQLAKSIVEEILLLFESAQKTSKRYELVADQQDLVVFEDKDMKPIGRALHRRLNDLVSRRQKQTSLAKKTAWALYDGKSLEKIVDQVARFVDELEKAFPIEAVCHKLAEIEIEEVEDEASLTILKDAAGGIDAAMSDAAAQKIDAIVGRNSAKDIRTEERARVQLGNVVTAAALHGGIRISDQTTNSVETVVGKGEARVLIGNEYGGKGFWDN [S273A], the “ddG of mutation (higher = less stable)” value is -1.4 kcal/mol and the unfolding free energy was 4.3 kcal/mol.

For MSEPFGIVAGALNVAGLFNNCVDCFEYVQLGRPFGRDYERCQLRLDIAKARLSRWGEAVKINDDPRFHSDAPTDKSVQLAKSIVEEILLLFESAQKTSKRYELVADQQDLVVFEDKDMKPIGRALHRRLNDLVSRRQKQTSLAKKTAWALYDGKSLEKIVDQVARFVDELEKAFPIEAVCHKLAEIEIEEVEDEASLTILKDAAGGIDAAMSDAAAQKIDAIVGRNSAADIRTEERARVQLGNVVTAAALHGGIRISDQTTNSVETVVGKGESRVLIGNEYGGKGFWDN [K229A], the “ddG of mutation (higher = less stable)” value was -1.5 kcal/mol and the unfolding free energy came out at 4.4 kcal/mol.

MSEPFGIVAGALNVAGLFNNCVDCFEYVQLGRPFGRDYERCQLRLDIAKARLSRWGEAVKINDDPRFHSDAPTDKSVQLAKSIVEEILLLFESAQKTSKRYELVADQQDLVVFEDKDMKPIGRALHRRLNDLVSRRQKQTSLAKKTAWALYDGKSLEKIVDQVARFVDELEKAFPIEAVCHKLAEIEIEEVEDEASLTILKDAAGGIDAAMSDAAAQKIDAIVGRNSAKDIRTEERARVQLGNVVTAAALHGGIRISDQTTNSVETVVGKGASRVLIGNEYGGKGFWDN [E272A]: the “ddG of mutation (higher = less stable)” value is -1.9 kcal/mol and the unfolding free energy turned out to be 4.8 kcal/mol.

On to MSEPFGIVAGALNVAGLFNNCVDCFEYVQLGRPFGRDYERCQLRLDIAKARLSRWGEAVKINDDPRFHSDAPTDKSVQLAKSIVEEILLLFESAQKTSKRYELVADQQDLVVFEDKDMKPIGRALHRRLNDLVSRRQKQTSLAKKTAWALYDGKSLEKIVDQVARFVDELEKAFPIEAVCHKLAEIEIEEVEDEASLTILKDAAGGIDAAMSDAAAQKIDAIVGRNSAKDIRTEERARVQLGNVVTAAALHGGIRISDQTTNSVETVVGKGESRVLIGNEYGGKGFWAN [D288A], for which the “ddG of mutation (higher = less stable)” value was -1.2 kcal/mol and the unfolding free energy was 4.1 kcal/mol.

The values are drawn from FireProtDB (doi:10.1371/journal.ppat.1004158).
